These results are taken from patent publication US20200297818A1 (ZEALAND PHARMA A S, published 2020).

The target in assay [1] is human glucagon-like peptide 1 receptor (GLP-1 R) (human, UniProt P43220 24-463). In words: cell-based or functional assay.
Assay [2] deals with T1, human GLP-2 receptor (hGLP2-R) (human, UniProt O95838 1-553).
T1 sequence (looked up): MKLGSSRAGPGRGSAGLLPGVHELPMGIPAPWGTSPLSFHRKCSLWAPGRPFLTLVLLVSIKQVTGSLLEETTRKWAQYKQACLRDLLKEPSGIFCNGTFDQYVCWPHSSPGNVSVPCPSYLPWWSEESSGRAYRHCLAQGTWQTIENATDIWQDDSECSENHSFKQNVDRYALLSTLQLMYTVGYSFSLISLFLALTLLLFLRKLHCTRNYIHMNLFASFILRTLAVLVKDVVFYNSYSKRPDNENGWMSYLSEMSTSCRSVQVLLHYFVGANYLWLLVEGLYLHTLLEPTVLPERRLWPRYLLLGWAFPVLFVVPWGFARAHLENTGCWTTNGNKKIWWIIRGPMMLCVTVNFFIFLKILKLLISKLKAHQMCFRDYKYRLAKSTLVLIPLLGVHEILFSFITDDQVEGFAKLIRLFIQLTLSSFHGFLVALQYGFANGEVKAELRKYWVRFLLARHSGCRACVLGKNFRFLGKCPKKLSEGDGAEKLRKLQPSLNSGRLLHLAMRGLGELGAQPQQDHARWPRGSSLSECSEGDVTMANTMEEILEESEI
In words: cell-based or functional assay.

B1: Compound 17 (peptide)
peptide: HXEGTFSSELATILDXQAARDFIAWLIQHKITD
HELM: PEPTIDE1{H.[Aib].E.G.T.F.S.S.E.L.A.T.I.L.D.K.Q.A.A.R.D.F.I.A.W.L.I.Q.H.K.I.T.D}|PEPTIDE2{[O=C(O)CCCCCCCCCCCCCCCCC(=O)[*:2]].[gGlu]}$PEPTIDE1,PEPTIDE2,16:R3-2:R2$$$V2.0
SMILES: CC[C@H](C)[C@H](NC(=O)[C@H](Cc1ccccc1)NC(=O)[C@H](CC(=O)O)NC(=O)[C@H](CCCNC(=N)N)NC(=O)[C@H](C)NC(=O)[C@H](C)NC(=O)[C@H](CCC(N)=O)NC(=O)[C@H](CCCCNC(=O)CC[C@H](NC(=O)CCCCCCCCCCCCCCCCC(=O)O)C(=O)O)NC(=O)[C@H](CC(=O)O)NC(=O)[C@H](CC(C)C)NC(=O)[C@@H](NC(=O)[C@@H](NC(=O)[C@H](C)NC(=O)[C@H](CC(C)C)NC(=O)[C@H](CCC(=O)O)NC(=O)[C@H](CO)NC(=O)[C@H](CO)NC(=O)[C@H](Cc1ccccc1)NC(=O)[C@@H](NC(=O)CNC(=O)[C@H](CCC(=O)O)NC(=O)C(C)(C)NC(=O)[C@@H](N)Cc1c[nH]cn1)[C@@H](C)O)[C@@H](C)O)[C@@H](C)CC)C(=O)N[C@@H](C)C(=O)N[C@@H](Cc1c[nH]c2ccccc12)C(=O)N[C@@H](CC(C)C)C(=O)N[C@H](C(=O)N[C@@H](CCC(N)=O)C(=O)N[C@@H](Cc1c[nH]cn1)C(=O)N[C@@H](CCCCN)C(=O)N[C@H](C(=O)N[C@H](C(=O)N[C@@H](CC(=O)O)C(=O)O)[C@@H](C)O)[C@@H](C)CC)[C@@H](C)CC
Regarding B1, the “EC50 GLP-1 (nM); cAMP response” value in assay [1] stood at 0.9 nM. Also, in assay [2], the “EC50 GLP-2 (nM); cAMP response” value stood at 0.33 nM.

B2: Compound 18 (peptide)
peptide: HXEGSFTSELATILDXQAARDFIAWLIQHKITD
HELM: PEPTIDE1{H.[Aib].E.G.S.F.T.S.E.L.A.T.I.L.D.K.Q.A.A.R.D.F.I.A.W.L.I.Q.H.K.I.T.D}|PEPTIDE2{[O=C(O)CCCCCCCCCCCCCCCCC(=O)[*:2]].[gGlu]}$PEPTIDE1,PEPTIDE2,16:R3-2:R2$$$V2.0
SMILES: CC[C@H](C)[C@H](NC(=O)[C@H](Cc1ccccc1)NC(=O)[C@H](CC(=O)O)NC(=O)[C@H](CCCNC(=N)N)NC(=O)[C@H](C)NC(=O)[C@H](C)NC(=O)[C@H](CCC(N)=O)NC(=O)[C@H](CCCCNC(=O)CC[C@H](NC(=O)CCCCCCCCCCCCCCCCC(=O)O)C(=O)O)NC(=O)[C@H](CC(=O)O)NC(=O)[C@H](CC(C)C)NC(=O)[C@@H](NC(=O)[C@@H](NC(=O)[C@H](C)NC(=O)[C@H](CC(C)C)NC(=O)[C@H](CCC(=O)O)NC(=O)[C@H](CO)NC(=O)[C@@H](NC(=O)[C@H](Cc1ccccc1)NC(=O)[C@H](CO)NC(=O)CNC(=O)[C@H](CCC(=O)O)NC(=O)C(C)(C)NC(=O)[C@@H](N)Cc1c[nH]cn1)[C@@H](C)O)[C@@H](C)O)[C@@H](C)CC)C(=O)N[C@@H](C)C(=O)N[C@@H](Cc1c[nH]c2ccccc12)C(=O)N[C@@H](CC(C)C)C(=O)N[C@H](C(=O)N[C@@H](CCC(N)=O)C(=O)N[C@@H](Cc1c[nH]cn1)C(=O)N[C@@H](CCCCN)C(=O)N[C@H](C(=O)N[C@H](C(=O)N[C@@H](CC(=O)O)C(=O)O)[C@@H](C)O)[C@@H](C)CC)[C@@H](C)CC
Regarding B2, the “EC50 GLP-1 (nM); cAMP response” value in assay [1] turned out to be 0.19 nM. For the same molecule, in assay [2], the “EC50 GLP-2 (nM); cAMP response” value came out at 0.21 nM.

B3: Compound 19 (peptide)
peptide: HXEGTFTSELATILDXQAARDFIAWLIQHKITD
HELM: PEPTIDE1{H.[Aib].E.G.T.F.T.S.E.L.A.T.I.L.D.K.Q.A.A.R.D.F.I.A.W.L.I.Q.H.K.I.T.D}|PEPTIDE2{[O=C(O)CCCCCCCCCCCCCCCCC(=O)[*:2]].[gGlu]}$PEPTIDE1,PEPTIDE2,16:R3-2:R2$$$V2.0
SMILES: CC[C@H](C)[C@H](NC(=O)[C@H](Cc1ccccc1)NC(=O)[C@H](CC(=O)O)NC(=O)[C@H](CCCNC(=N)N)NC(=O)[C@H](C)NC(=O)[C@H](C)NC(=O)[C@H](CCC(N)=O)NC(=O)[C@H](CCCCNC(=O)CC[C@H](NC(=O)CCCCCCCCCCCCCCCCC(=O)O)C(=O)O)NC(=O)[C@H](CC(=O)O)NC(=O)[C@H](CC(C)C)NC(=O)[C@@H](NC(=O)[C@@H](NC(=O)[C@H](C)NC(=O)[C@H](CC(C)C)NC(=O)[C@H](CCC(=O)O)NC(=O)[C@H](CO)NC(=O)[C@@H](NC(=O)[C@H](Cc1ccccc1)NC(=O)[C@@H](NC(=O)CNC(=O)[C@H](CCC(=O)O)NC(=O)C(C)(C)NC(=O)[C@@H](N)Cc1c[nH]cn1)[C@@H](C)O)[C@@H](C)O)[C@@H](C)O)[C@@H](C)CC)C(=O)N[C@@H](C)C(=O)N[C@@H](Cc1c[nH]c2ccccc12)C(=O)N[C@@H](CC(C)C)C(=O)N[C@H](C(=O)N[C@@H](CCC(N)=O)C(=O)N[C@@H](Cc1c[nH]cn1)C(=O)N[C@@H](CCCCN)C(=O)N[C@H](C(=O)N[C@H](C(=O)N[C@@H](CC(=O)O)C(=O)O)[C@@H](C)O)[C@@H](C)CC)[C@@H](C)CC
For the molecule B3, the “EC50 GLP-1 (nM); cAMP response” value in assay [1] stood at 0.066 nM. In assay [2], the “EC50 GLP-2 (nM); cAMP response” value stood at 0.23 nM.

B4: Compound 20 (peptide)
peptide: HXEGTFSSELATILDXQAARDFIAWLIEHKITD
HELM: PEPTIDE1{H.[Aib].E.G.T.F.S.S.E.L.A.T.I.L.D.K.Q.A.A.R.D.F.I.A.W.L.I.E.H.K.I.T.D}|PEPTIDE2{[O=C(O)CCCCCCCCCCCCCCCCC(=O)[*:2]].[gGlu]}$PEPTIDE1,PEPTIDE2,16:R3-2:R2$$$V2.0
SMILES: CC[C@H](C)[C@H](NC(=O)[C@H](Cc1ccccc1)NC(=O)[C@H](CC(=O)O)NC(=O)[C@H](CCCNC(=N)N)NC(=O)[C@H](C)NC(=O)[C@H](C)NC(=O)[C@H](CCC(N)=O)NC(=O)[C@H](CCCCNC(=O)CC[C@H](NC(=O)CCCCCCCCCCCCCCCCC(=O)O)C(=O)O)NC(=O)[C@H](CC(=O)O)NC(=O)[C@H](CC(C)C)NC(=O)[C@@H](NC(=O)[C@@H](NC(=O)[C@H](C)NC(=O)[C@H](CC(C)C)NC(=O)[C@H](CCC(=O)O)NC(=O)[C@H](CO)NC(=O)[C@H](CO)NC(=O)[C@H](Cc1ccccc1)NC(=O)[C@@H](NC(=O)CNC(=O)[C@H](CCC(=O)O)NC(=O)C(C)(C)NC(=O)[C@@H](N)Cc1c[nH]cn1)[C@@H](C)O)[C@@H](C)O)[C@@H](C)CC)C(=O)N[C@@H](C)C(=O)N[C@@H](Cc1c[nH]c2ccccc12)C(=O)N[C@@H](CC(C)C)C(=O)N[C@H](C(=O)N[C@@H](CCC(=O)O)C(=O)N[C@@H](Cc1c[nH]cn1)C(=O)N[C@@H](CCCCN)C(=O)N[C@H](C(=O)N[C@H](C(=O)N[C@@H](CC(=O)O)C(=O)O)[C@@H](C)O)[C@@H](C)CC)[C@@H](C)CC
B4: the “EC50 GLP-1 (nM); cAMP response” value in assay [1] was 0.55 nM. In addition, the “EC50 GLP-2 (nM); cAMP response” value in assay [2] worked out at 0.37 nM.
